Laboratory results taken from paper PMC5669500, “Scaffolding the cup-shaped double membrane in autophagy” (PLoS Computational Biology, 2017).

Columns and labels:
Assay in all cases: pull-down; 20 μg GST-Atg13 (351–458) immobilised on 30 μL Glutathione Sepharose 4B; Atg17-Atg31-Atg29 complex at 10 μM; 4°C, 1 hour; 20 mM Tris pH 8, 150 mM NaCl, 0.1 mM TCEP; 3 washes; SDS-PAGE
Conditions in all cases: both partners purified
[1] = target: T1, Atg17-Atg31-Atg29 complex, wild type (Saccharomyces cerevisiae, UniProt Q06410 1-417; Q12421 1-196; Q12092 1-213)
T1 construct: Atg17, Saccharomyces cerevisiae; Atg31, Saccharomyces cerevisiae; Atg29, Saccharomyces cerevisiae; a TEV cleavage site follows the His6 tag; Atg17 is described as a dimer; cleavage of the His6 tag by TEV is not mentioned; also called recombinant ternary complex; Atg17-Atg31-Atg29 subcomplex of Atg1; source: E. coli BL21 (DE3), co-expressed from pST39, purified (Ni-NTA, Superose 6); copies: 2 + +
T1 sequence (looked up) 1: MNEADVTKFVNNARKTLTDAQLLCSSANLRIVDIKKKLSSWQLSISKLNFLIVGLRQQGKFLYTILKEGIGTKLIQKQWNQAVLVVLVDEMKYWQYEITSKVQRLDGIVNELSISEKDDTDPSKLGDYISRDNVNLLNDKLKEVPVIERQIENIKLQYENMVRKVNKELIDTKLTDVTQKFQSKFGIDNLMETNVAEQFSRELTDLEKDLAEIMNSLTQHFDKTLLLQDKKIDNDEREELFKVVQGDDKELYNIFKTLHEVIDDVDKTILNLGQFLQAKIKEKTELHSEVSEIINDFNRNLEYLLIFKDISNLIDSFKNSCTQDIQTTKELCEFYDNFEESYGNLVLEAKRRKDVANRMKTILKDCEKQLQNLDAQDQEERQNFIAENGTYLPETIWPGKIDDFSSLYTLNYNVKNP
T1 sequence (looked up) 2: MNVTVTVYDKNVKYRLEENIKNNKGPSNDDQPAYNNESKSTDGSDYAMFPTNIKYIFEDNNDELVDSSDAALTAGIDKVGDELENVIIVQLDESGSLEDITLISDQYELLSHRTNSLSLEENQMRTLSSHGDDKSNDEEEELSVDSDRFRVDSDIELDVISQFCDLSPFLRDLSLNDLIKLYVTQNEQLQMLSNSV
T1 sequence (looked up) 3: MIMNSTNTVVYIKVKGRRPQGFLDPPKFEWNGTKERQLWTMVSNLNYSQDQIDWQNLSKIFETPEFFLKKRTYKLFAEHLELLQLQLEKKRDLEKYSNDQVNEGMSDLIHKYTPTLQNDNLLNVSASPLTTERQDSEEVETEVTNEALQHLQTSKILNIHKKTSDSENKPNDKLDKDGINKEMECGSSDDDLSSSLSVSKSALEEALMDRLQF

[2] = target: T2, Atg17-Atg31-Atg29 complex with Atg17 mutant M4 (K164D/K173D/R299D) (Saccharomyces cerevisiae, UniProt Q06410 1-417; Q12421 1-196; Q12092 1-213, K164D | K173D | R299D)
T2 construct: Atg17, Saccharomyces cerevisiae; Atg31, Saccharomyces cerevisiae; Atg29, Saccharomyces cerevisiae; a TEV cleavage site follows the His6 tag; Mutations introduced into the Atg17-Atg31-Atg29 construct by quick-change mutagenesis; source: E. coli BL21 (DE3), co-expressed from pST39, purified (Ni-NTA, Superose 6); copies: 2 + +
T2 sequence (looked up) 1: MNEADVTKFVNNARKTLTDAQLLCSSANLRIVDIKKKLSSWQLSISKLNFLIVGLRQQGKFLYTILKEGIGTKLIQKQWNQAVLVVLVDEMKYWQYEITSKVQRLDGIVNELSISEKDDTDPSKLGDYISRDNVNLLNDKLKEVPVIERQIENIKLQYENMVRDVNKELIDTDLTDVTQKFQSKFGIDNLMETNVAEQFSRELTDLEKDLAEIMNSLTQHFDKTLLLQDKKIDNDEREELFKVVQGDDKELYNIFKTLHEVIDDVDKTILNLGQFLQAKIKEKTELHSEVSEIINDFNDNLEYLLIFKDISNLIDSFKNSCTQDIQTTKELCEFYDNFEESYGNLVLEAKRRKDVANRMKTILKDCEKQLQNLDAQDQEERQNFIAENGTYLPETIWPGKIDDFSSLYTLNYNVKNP
T2 sequence (looked up) 2: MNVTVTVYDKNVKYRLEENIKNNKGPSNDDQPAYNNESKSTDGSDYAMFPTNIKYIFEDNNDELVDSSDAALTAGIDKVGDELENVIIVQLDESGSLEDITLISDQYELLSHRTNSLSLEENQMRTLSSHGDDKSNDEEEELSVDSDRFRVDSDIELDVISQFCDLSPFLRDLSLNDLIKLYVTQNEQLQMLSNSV
T2 sequence (looked up) 3: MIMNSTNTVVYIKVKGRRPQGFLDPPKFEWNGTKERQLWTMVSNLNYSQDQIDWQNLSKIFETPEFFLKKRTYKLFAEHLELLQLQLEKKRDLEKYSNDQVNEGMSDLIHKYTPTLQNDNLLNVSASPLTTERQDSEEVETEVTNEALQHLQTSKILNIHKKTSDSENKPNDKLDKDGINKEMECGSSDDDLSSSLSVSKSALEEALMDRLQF

[3] = target: T3, Atg17-Atg31-Atg29 complex with Atg17 mutant M5 (K92D/L141D) (Saccharomyces cerevisiae, UniProt Q06410 1-417; Q12421 1-196; Q12092 1-213, K92D | L141D)
T3 construct: Atg17, Saccharomyces cerevisiae; Atg31, Saccharomyces cerevisiae; Atg29, Saccharomyces cerevisiae; a TEV cleavage site follows the His6 tag; Mutations introduced into the Atg17-Atg31-Atg29 construct by quick-change mutagenesis; source: E. coli BL21 (DE3), co-expressed from pST39, purified (Ni-NTA, Superose 6); copies: 2 + +
T3 sequence (looked up) 1: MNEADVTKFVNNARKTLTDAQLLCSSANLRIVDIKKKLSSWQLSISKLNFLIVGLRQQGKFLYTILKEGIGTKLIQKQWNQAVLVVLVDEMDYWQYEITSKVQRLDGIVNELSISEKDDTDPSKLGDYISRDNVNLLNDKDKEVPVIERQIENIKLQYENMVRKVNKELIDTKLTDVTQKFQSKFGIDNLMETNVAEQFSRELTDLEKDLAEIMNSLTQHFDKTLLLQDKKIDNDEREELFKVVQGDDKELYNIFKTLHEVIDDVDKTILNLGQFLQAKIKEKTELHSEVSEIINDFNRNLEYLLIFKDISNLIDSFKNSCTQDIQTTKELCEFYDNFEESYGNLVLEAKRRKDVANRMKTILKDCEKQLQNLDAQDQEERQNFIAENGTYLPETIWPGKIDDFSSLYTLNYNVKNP
T3 sequence (looked up) 2: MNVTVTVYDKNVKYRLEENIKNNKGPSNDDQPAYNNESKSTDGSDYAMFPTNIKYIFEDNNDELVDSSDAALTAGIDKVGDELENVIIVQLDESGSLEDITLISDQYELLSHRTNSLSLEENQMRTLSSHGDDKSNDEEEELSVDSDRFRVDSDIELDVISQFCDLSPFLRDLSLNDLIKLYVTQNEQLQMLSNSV
T3 sequence (looked up) 3: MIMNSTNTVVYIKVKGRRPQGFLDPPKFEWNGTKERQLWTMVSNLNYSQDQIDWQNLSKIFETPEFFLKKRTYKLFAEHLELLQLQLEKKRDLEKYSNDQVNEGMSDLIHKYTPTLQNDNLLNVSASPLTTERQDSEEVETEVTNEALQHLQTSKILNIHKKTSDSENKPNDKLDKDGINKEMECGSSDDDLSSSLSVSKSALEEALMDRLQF

Measured: binding result

B1: GST-Atg13 (351–458) (domain or fragment, Saccharomyces cerevisiae, UniProt Q06628 351-458, looked up)
chain: TRANSFEPQSWQKKVYPISRPVQPFKVGSIGSQSASRNPSNSSFFNQPPVHRPSMSSNYGPQMNIEGTSVGSTSKYSSSFGNIRRHSSVKTTENAEKVSKAVKSPLQP
notes: a TEV cleavage site follows the GST tag; source: recombinant from pGST2 vector, purified (Glutathione Sepharose 4B, HiLoad Superdex 200 16/60); not shown: GST, N-terminal, kept
binds: all assays above
